From the nanobody polyreactivity screen of Harvey et al. (2022)

Experiment: yeast display, Sf9 membrane polyspecificity reagent, FACS + sequencing; frameworks hold sequencing errors
In short: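 Genes from sorted yeast were amplified by colony PCR, read by MiSeq 2 × 250 sequencing and filtered on CDR length. These cells carried a synthetic nanobody library in Saccharomyces cerevisiae BJ5465 and were sorted by FACS into low and high (top ~1%) gates on anti-HA and streptavidin fluorescence. Polyreactivity is labelled according to the gate of origin.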

Row | Sequence | polyreactivity (PSR sort gate)
1 | QVQLVESGGGLVQAGGSLRLSCAASGLTFFKYTMGWYRQAPGKERELVAAISSSGGSTRYADSVKGRFTISRDNAKNTVYLQMNSLKPEDTAVYYCAKRGYTSSRRWIYDYWGQGTQVTVSS | high polyreactivity
2 | QVQLVESGGGLVQAGGSLRLSCAASGLTFFKYTMGWYRQPPGKERELVSAINGGGSTNYADSVKGRFSISRDNAKNTVYLQMNSLKPEDTAVYYCAAGLQYGYDYWGQGTQVTVSS | low polyreactivity
3 | QVQLVESGGGLVQAGGSLRLSCAASGLTFGFYAMGWYRQAPGKERELVAGISNGGSTNYADSVKARFTISRDNAKNTVYLQMNSLKPEDTAVFYCAAQGEYGFTAYYPGDSWGQGTQVTVSS | low polyreactivity
4 | QVQLVESGGGLVQAGGSLRLSCAASGLTFGGNAMGWYRQAPGKERELVAAISGSGGRTYYADSVKGRFTISRDNEKNTVYLQMNSLKPEDTAVYYCNAATNRRTSDYWGQGTQVTVSS | high polyreactivity
5 | QVQLVESGGGLVQAGGSLRLSCAASGLTFGGSAMGWYRQAPGKERELVAGISSSGNTNYADSVKGRFTISRDNAKNTVYLQMISLKPEDTAVYYCAADENITYPVYDMYYWGQGTQVTVSS | low polyreactivity
6 | QVQLVESGGGLVQAGGSLRLSCAASGLTFGNYSKGWYRQAPGKERELVAAISKRGGTTYYADSVKGRFTISRDNAKNTVYLQMNSLKPEDTAVYYCAAQVGRGYEVYPVYKYGYWGQGTQVTVSS | high polyreactivity
7 | QVQLVESGGGLVQAGGSLRLSCAASGLTFGRYAMGWYRQAPGKERELVAVINRGGNTYYADSVKGRFTISRDNAKNTVYLQMNSLKPEDTAVYYCAADYLRWAGRYFSWDYDYWGQGTQVTVSS | high polyreactivity
8 | QVQLVESGGGLVQAGGSLRLSCAASGLTFGRYTMGWYRQAPGKERELVAAISYSGGSTYYADSVKGRFTISRDNAKNTVYLQMNSLKPEDTAVYYCAKRWTGLGGYYYWGQGTQVTVSS | high polyreactivity
9 | QVQLVESGGGLVQAGGSLRLSCAASGLTFGSNTMGWYRQAPGKERELVAAITSNGGSTYYADSVKRRFTISRDYAKNTVYLQMNSLKPEDTAVYYCAARSYDGYYRYYYWGQGTQVTVSS | low polyreactivity
10 | QVQLVESGGGLVQAGGSLRLSCAASGLTFGTNSMGWYREAPGKEMELVAAISTSSGSTYYADSVKGRFTISRDNAKNTVYLLMNRLKPEDTAVFYCAAVTVTKLSYYRYYYWGQCTQVTVSS | low polyreactivity
11 | QVQLVESGGGLVQAGGSLRLSCAASGLTFGTYAMGWYRQAPGKERELVAAISGTGGTTYYADSVKGRFTISRDNAKNTVYLKMNSLKPEDTAVYYCNKRWRRPYPYDYWGQGTQVTVSS | high polyreactivity
12 | QVQLVESGGGLVQAGGSLRLSCAASGLTFGVNAMGWSRQAPGKERELVAAISGSGGRTNYADSVKGRFTISRDNAKNTVYLQMNSLKPEDTAVYYCNARFPDWALSEISHSTTYGYWGQGTQVTVSS | low polyreactivity
13 | QVQLVESGGGLVQAGGSLRLSCAASGLTFGYNAMGWYRQAPGKERELVAAISSNGGRTYYADSVKGRFTISRDNAKNTVYLQMNSLKPEDTAVYYCNVVYSRSRPYDYWGQGTQVTVSS | high polyreactivity
14 | QVQLVESGGGLVQAGGSLRLSCAASGLTFHPYAMGWYRQAPGKERELVAAISSRGTSTYYADSVKGRFTISRDNAKNTVYLQMNSLKPEDTAVYYCAAEVITIGLYRYGYWGQGTQVTVSS | high polyreactivity
15 | QVQLVESGGGLVQAGGSLRLSCAASGLTFHRYAMGWYRQAPGKERELVAAINYSGGRTYYADSVKGRFTISRDNAKNTVYLQMNSLKPEDTAVYYCAAPRASGYYWGQGTQVTVSS | high polyreactivity
16 | QVQLVESGGGLVQAGGSLRLSCAASGLTFIDYAMGWYRQAPGKERELVAAITKSGGGTYYADSVKGRFTISRDNAKNTVYLQMNSLKPEDTAVYYCAAVYRTRLYYYWGQGTQVTVSS | high polyreactivity

Row | Sequence | polyreactivity (PSR sort gate)
17 | QVQLVESGGGLVQAGGSLRLSCAASGLTFIEYAMGWYRQAPGKERELVAAISSGGRTYYADSVKGRFTISRDNAKNTVYLQMNSLKPEDTAVYYCNARGYRRWYNYWGQGTQVTVSS | high polyreactivity
18 | QVQLVESGGGLVQAGGSLRLSCAASGLTFILNAMGWYRQAPGKEREFVAAISRSGVRTYYADSVKGRFTISRDNAKNTVYLQMNSLKPEDTAVYYCARVAPASGVRWYYYWGQGTQVTVSS | high polyreactivity
19 | QVQLVESGGGLVQAGGSLRLSCAASGLTFIYYAMGWYRQAPGKERELVAGITRRGGSTYYADSVKGRFTISRDNAKNNVYLQMNSLKPEDTAVYYCAKSPVYRFDSWGQGTQVTVSS | high polyreactivity
20 | QVQLVESGGGLVQAGGSLRLSCAASGLTFIYYAMGWYRQAPGKEWELVAAISVSGGSTYYADSVKGRFTISRDNAKNTVYLQMNSLKPEDTAVYYCAADWFVHKPRYHSTFDFWGQGTQVTVSS | low polyreactivity
21 | QVQLVESGGGLVQAGGSLRLSCAASGLTFKFYDMGWYRQAPVKEREFVAGITSSGGTTYYADSVKGRFTISRDNAKNTVYLQMNSLKPEVTAVYYCAAADIDDGPFDSWGQGTQVNVSS | low polyreactivity
22 | QVQLVESGGGLVQAGGSLRLSCAASGLTFKTYAMGWYRQAPGKERELVAAISRSGGSTSYADSVKGRFTISRDNAKNTVYLQMNSLKPEDTAVYYCAAKTYEPRKYEYWGQGTQVTVSS | high polyreactivity
23 | QVQLVESGGGLVQAGGSLRLSCAASGLTFKVNPMGGYRQAPGKERELVPAISSGDRTYYADSVKGRFTISRDNAKNTVDLQMNSLKPEDTAVYYCNARGHNRYGTLLGFGRVPGYDYWGQGTQVTVSS | low polyreactivity
24 | QVQLVESGGGLVQAGGSLRLSCAASGLTFKYYAMGWYRQAPGKERELVAAINRSGSSTYYADSVKGRFTISRDNAKNTVYLQMNSLKPEDTAVYYCAKDSFTSTRQYDYWGQGTQVTVSS | low polyreactivity
25 | QVQLVESGGGLVQAGGSLRLSCAASGLTFMYYAMGWYRQAPGKERELVAAISKGGGSTYYADSVKGRFTISRDNAKNTVYLQMNSLKPEDTAVYYCNADKVTRVTYWDDSWGLGTQVTVSS | high polyreactivity
26 | QVQLVESGGGLVQAGGSLRLSCAASGLTFNAYPMGCYRQAPGKEWELVAAITSRGSSTYYADSVKGRFTISRDNAKNTVYLQMNSLKPEDTAVYYCAARQRGYYYSRRYDYWGQGTQVTVSS | high polyreactivity
27 | QVQLVESGGGLVQAGGSLRLSCAASGLTFNFYAKGWYRQAPGKEREFVAAISRSGGSTHYADSVKGRFTISRDYAKYTVYLQMYSLKPEDTAVYYCAADGGRKNYDYWGQGTQVTVSS | high polyreactivity
28 | QVQLVESGGGLVQAGGSLRLSCAASGLTFNPNAMGWYRQAPGKERDLVADITYRGGSTYYADSEKGRFTISRDNAKNTDYLQMYSLKPEDTAVYYCAAQYIGWHLYWYDYWGQGTQVTVSS | low polyreactivity
29 | QVQLVESGGGLVQAGGSLRLSCAASGLTFNVYAMGWYRQAPGKERELVASITKRGGSTYYADSVKGRFTISRDNAKNTVYLQMNSLKPEDTAVYYCAADGLTGSIYRATGYYWGQGTQVTVSS | high polyreactivity
30 | QVQLVESGGGLVQAGGSLRLSCAASGLTFPDNAMGWYRQAPGKERELVAAITIDGSTYYADSVKGRFTISRDNAKNTVYLQMNSLKPEDTSVYYCNALVGVPYAMYYWGQGTQVTVSS | low polyreactivity
31 | QVQLVESGGGLVQAGGSLRLSCAASGLTFPHYTMGWYRQAPGKEREFVARITGSGGRTYYADSVKGRFTISRDNAKNTVDLQRNSLKPEVTGVYYCARDRGYQSGYDYWGQGTQVSVSS | high polyreactivity
32 | QVQLVESGGGLVQAGGSLRLSCAASGLTFPPNAMGWYRQAPGKEREFVAVISSGGGSTYYADSVMGRFTISRDHAKNTVYLQMNSLKPEDTAVYNCATEYQDGDTEYYYWGQGTQVTVSS | low polyreactivity
